According to patent publication WO2015103549A1 (dated 2015):

Tests used:
[1] = biological target: T1, centromere B (UniProt P07199 2-599); test: Luminex AtheNA Multi-Lyte ANA test
T1 construct: also called CentrB
T1 sequence (looked up): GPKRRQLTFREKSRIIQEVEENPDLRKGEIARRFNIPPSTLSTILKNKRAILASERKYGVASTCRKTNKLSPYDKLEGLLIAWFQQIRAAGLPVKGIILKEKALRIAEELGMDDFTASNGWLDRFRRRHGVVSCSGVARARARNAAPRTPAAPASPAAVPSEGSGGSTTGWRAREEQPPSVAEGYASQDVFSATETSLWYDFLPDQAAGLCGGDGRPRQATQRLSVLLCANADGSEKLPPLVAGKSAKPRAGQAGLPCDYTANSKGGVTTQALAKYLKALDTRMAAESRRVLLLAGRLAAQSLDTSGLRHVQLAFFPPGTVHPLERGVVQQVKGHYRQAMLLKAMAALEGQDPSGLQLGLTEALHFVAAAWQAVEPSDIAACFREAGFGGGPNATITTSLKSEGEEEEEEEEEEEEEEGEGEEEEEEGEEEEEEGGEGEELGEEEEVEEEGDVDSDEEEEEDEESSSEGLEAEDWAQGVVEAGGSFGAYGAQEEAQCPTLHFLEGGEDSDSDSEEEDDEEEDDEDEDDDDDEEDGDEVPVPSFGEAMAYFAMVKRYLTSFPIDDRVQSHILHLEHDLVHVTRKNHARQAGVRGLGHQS

[2] = biological target: T2, Sjogren syndrome antigen B (UniProt P05455 1-408); test: Luminex AtheNA Multi-Lyte ANA test
T2 construct: also called SSB; SS-B/La
T2 sequence (looked up): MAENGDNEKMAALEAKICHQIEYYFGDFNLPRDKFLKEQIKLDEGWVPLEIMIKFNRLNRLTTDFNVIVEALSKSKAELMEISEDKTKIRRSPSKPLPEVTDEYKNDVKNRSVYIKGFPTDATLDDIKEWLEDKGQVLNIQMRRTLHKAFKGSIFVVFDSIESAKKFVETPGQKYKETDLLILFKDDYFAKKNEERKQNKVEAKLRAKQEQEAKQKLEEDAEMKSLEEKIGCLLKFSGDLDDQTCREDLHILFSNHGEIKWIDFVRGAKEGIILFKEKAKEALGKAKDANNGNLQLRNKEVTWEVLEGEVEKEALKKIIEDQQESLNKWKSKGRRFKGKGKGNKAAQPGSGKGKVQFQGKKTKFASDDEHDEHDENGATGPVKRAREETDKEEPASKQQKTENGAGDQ

[3] = biological target: T3, Jo1 antigen (UniProt P12081 2-509); test: Luminex AtheNA Multi-Lyte ANA test
T3 sequence (looked up): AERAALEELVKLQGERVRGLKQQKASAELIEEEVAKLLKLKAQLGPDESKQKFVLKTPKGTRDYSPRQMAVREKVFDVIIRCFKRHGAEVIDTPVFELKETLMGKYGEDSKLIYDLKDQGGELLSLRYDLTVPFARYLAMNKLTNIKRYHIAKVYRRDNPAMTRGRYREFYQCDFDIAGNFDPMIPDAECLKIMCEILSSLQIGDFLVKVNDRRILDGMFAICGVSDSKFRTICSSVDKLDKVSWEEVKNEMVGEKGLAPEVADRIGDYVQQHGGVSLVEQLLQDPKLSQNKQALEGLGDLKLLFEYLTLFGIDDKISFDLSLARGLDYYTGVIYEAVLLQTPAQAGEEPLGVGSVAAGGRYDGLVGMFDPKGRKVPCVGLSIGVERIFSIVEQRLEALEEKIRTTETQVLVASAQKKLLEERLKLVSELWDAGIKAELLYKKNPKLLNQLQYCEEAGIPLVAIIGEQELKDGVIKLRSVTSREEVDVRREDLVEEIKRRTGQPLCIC

[4] = biological target: T4, scleroderma 70 (UniProt P11387 2-765); test: Luminex AtheNA Multi-Lyte ANA test
T4 construct: also called Scl 70
T4 sequence (looked up): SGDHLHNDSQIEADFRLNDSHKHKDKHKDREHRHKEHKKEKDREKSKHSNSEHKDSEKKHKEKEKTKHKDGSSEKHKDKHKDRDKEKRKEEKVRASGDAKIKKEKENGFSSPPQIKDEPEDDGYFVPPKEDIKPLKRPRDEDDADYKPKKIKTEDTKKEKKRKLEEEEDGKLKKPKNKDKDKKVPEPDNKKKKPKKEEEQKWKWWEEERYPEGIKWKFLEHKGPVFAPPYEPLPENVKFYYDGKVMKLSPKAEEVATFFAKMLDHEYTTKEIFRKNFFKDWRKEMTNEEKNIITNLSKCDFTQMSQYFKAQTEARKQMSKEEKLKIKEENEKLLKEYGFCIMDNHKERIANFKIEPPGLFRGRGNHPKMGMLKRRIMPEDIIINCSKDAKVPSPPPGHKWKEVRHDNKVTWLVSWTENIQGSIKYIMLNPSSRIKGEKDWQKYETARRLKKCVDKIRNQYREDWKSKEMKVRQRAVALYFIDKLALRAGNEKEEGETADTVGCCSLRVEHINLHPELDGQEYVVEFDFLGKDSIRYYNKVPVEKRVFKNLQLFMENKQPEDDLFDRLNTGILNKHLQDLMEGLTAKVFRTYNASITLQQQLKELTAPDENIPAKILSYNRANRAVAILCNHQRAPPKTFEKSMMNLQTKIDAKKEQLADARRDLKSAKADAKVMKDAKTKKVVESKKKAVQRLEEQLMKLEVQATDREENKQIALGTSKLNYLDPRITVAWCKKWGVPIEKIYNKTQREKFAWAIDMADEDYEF

[5] = biological target: T5, BG505 SOSIP.664 trimer (HIV-1); test: SPR, trimer immobilized by anti-histidine capture, Biacore 3000, 25 C (FIG. 2D)
T5 construct: domain: gp120;domain: gp41 ectodomain; also called soluble BG505 SOSIP

[6] = biological target: T6, HIV YU2 gp120 monomer (HIV-1, UniProt P35961 32-498); test: ELISA, antigen coated at 2 ug/ml
T6 construct: domain: gp120

[7] = biological target: T7, HIV YU2 gp41 monomer (HIV-1, UniProt P35961 499-671); test: ELISA, antigen coated at 2 ug/ml
T7 construct: domain: gp41

[8] = biological target: T8, HIV YU2 gp160 extracellular domain (gp140) foldon trimer (HIV-1, UniProt P35961 32-671); test: ELISA, antigen coated at 2 ug/ml
T8 construct: extracellular domain; also called HIVYU2 gp140 foldon trimer; not shown: foldon trimerisation domain

B1: 35022 antibody (antibody, V domains shown)
VH: QGQLVQSGAELKKPGASVKISCKTSGYRFNFYHINWIRQTAGRGPEWMGWISPYSGDKNLAPAFQDRVIMTTDTEVPVTSFTSTGAAYMEIRNLKFDDTGTYFCAKGLLRDGSSTWLPYLWGQGTLLTVSS
VL: QSVLTQSASVSGSLGQSVTISCTGPNSVCCSHKSISWYQWPPGRAPTLIIYEDNERAPGISPRFSGYKSYWSAYLTISDLRPEDETTYYCCSYTHNSGCVFGTGTKVSVL
notes: also called 35022 mAb
no binding: binding result [1] | binding result [2] | binding result [3] | binding result [4] | binding result [6] | binding result [7] | binding result [8]
5.6 nM: Kd [5]
